Reference: US7144731B2, “SCF antibody compositions and methods of using the same” (Amgen Inc., priority 1989, dated 2006)

What was measured:
normal mouse bone marrow = experiment: CFU-GM assay on normal mouse bone marrow; format: cell-based; settings: 10 day period, no other factors
Description: The action of purified mammalian SCF, both naturally-derived and recombinant, free from interfering colony stimulating factors (CSFs), on normal undepleted mouse bone marrow has been ascertained. A CFU-GM assay [Broxmeyer et al. Exp. Hematol., 5, 87 (1977)] is used to evaluate the effect of SCF on normal marrow. Briefly, total bone marrow cells after lysis of red blood cells are plated in semi-solid agar cultures containing the test substance. After.10 days, the colonies containing clusters of >40 cells are scored. The agar cultures can be dried down onto glass slides and the morphology of the cells can be determined via specific histological stains.

[1] = tested on: 5-FU treated mouse bone marrow cells; experiment: HPP-CFC assay; format: cell-based; settings: typical assay; plated with CSF-1 or IL-6
Description: There are a variety of biological activities which can be attributed to the natural mammalian rat SCF as well as the recombinant rat SCF protein. One such activity is its effect on early hematopoietic cells. This activity can be measured in a High Proliferative Potential Colony Forming Cell (HPP-CFC) assay [Zsebo, et al., supra (1988)]. To investigate the effects of factors on early hematopoietic cells, the HPP-CFC assay system utilizes mouse bone marrow derived from animals 2 days after 5-fluorouracil (5-FU) treatment. […] The rat SCF is plated in the presence of CSF-1 or IL-6 in semi-solid agar cultures. The agar cultures contain McCoys complete medium (GIBCO), 20% fetal bovine serum, 0.3% agar, and 2×10^5 bone marrow cells/ml. The McCoys complete medium contains the following components: 1× McCoys medium supplemented with 0.1 mM pyruvate, 0.24× essential amino acids, 0.24× non-essential amino acids, 0.027% sodium bicarbonate, 0.24× vitamins, 0.72 mM glutamine, 25 μg/ml L-serine, and 12 μg/ml L-asparagine. The bone marrow cells are obtained from Balb/c mice injected i.v. with 150 mg/kg 5-FU. The femurs are harvested 2 days post 5-FU treatment of the mice and bone marrow is flushed out. The red blood cells are lysed with red blood cell lysing reagent (Becton Dickenson) prior to plating. Test substances are plated with the above mixture in 30 mm dishes. Fourteen days later the colonies (>1 mm in diameter) which contain thousands of cells are scored. This assay was used throughout the purification of natural mammalian cell-derived rat SCF.

[2] = tested on: murine mast cell line, MC/9; experiment: MC/9 ^3H-thymidine uptake assay; format: cell-based; settings: typical
Description: Another useful biological activity of both naturally-derived and recombinant rat SCF is the ability to cause the proliferation of the […] murine mast cell line, MC/9 (ATCC CRL 8306). MC/9 cells are cultured with a source of […] according to the ATCC CRL 8306 protocol. The medium used in the bioassay is RPMI 1640, 4% fetal bovine serum, 5×10^−5M 2-mercaptoethanol, and 1× glutamine-pen-strep. The MC/9 cells proliferate in response to SCF without the requirement for other growth factors. This proliferation is measured by first culturing the cells for 24 h without growth factors, plating 5000 cells in each well of 96 well plates with test sample for 48 h, pulsing for 4 h with 0.5 uCi ^3H-thymidine (specific activity 20 Ci/mmol), harvesting the solution onto glass fiber filters, and then measuring specifically-bound radioactivity. This assay was used in the purification of mammalian cell derived rat SCF after the ACA 54 gel filtration step, section C2 of this Example. Typically, SCF caused a 4–10 fold increase in CPM over background.

[3] = tested on: bone marrow cells (CFU-S); experiment: pre-CFU-S assay; format: cell-based, mouse
Description: The in vitro survival and proliferation of primitive stem cells is critical to the success of gene transfer mediated by retroviral insertion or other known methods of gene transfer. The effect of SCF on the in vitro maintenance and/or proliferation of primitive progenitor cells has been studied in two systems which have been described previously [Bodine et al., Proc. Natl. Acad. Sci. 86 8897–8901, 1989]. The first is a pre-CFU-S assay wherein bone marrow cells are incubated for up to six days in suspension culture in the presence of growth factors. Aliquots are injected into lethally iradiated mice and the mice sacrificed at 12–14 days for quantitation of spleen focus formation. […] The second is a competitive repopulation assay which measures the effects of growth factors on recovery and biological activity of cells capable of sustaining long-term hematopoiesis. Cells from two congenic strains of mice differing for a hemoglobin marker are incubated in suspension independently, cells from one strain as a control and cells from a second under experimental conditions. After incubation, equal numbers of bone marrow cells from both cultures are mixed and injected into W/W^v recipients.

B1: rat SCF: rat stem cell factor, natural (purified from BRL 3A conditioned medium) or recombinant; form not specified at the place (protein, UniProt P21581 26-190, looked up)
Soluble KIT ligand: QEICRNPVTDNVKDITKLVANLPNDYMITLNYVAGMDVLPSHCWLRDMVTHLSVSLTTLLDKFSNISEGLSNYSIIDKLGKIVDDLVACMEENAPKNVKESLKKPETRNFTPEEFFSIFNRSIDAFKDFMVASDTSDCVLSSTLGPEKDSRVSVTKPFMLPPVAA
colonies from 200,000 cells plated (normal mouse bone marrow): over 100 | HPP-CFC per 200,000 cells plated [1]: approximately 50 | increase in CPM over background [2]: 4–10 fold | activity in the pre-CFU-S assay [3]: very little activity
